Measured values published in patent US20250152743A1, “SYNPOPTOSIS CIRCUITS FOR PROGRAMMABLE CELL DEATH CONTROL” (California Institute of Technology, priority 2023, published 2025).

Columns and labels:
HEK cells = experiment: Transient DNA transfection of HEK cells, Annexin/Sytox staining, flow cytometry; type: cell-based, human; conditions: for cell death without the activating TEVP: expressed at high levels indicated by co-transfected Cherry
Protocol: HEK cells were transiently co-transfected with DNA encoding the circuits, often along with Cherry, a fluorescent protein marker, and cells were analyzed by flow cytometry 16 to 24 hours later. To quantify cell death, the cells were strained with Annexin, Sytox, or both. Annexin stains apoptotic cells by binding to phosphatidylserine exposed on the outer leaflet, and pyroptotic cells by binding to phosphatidylserine in the inner leaflet after membrane permeabilization. In contrast, Sytox, a membrane-impermeable dye, primarily stains pyroptotic cells. Therefore, apoptotic cells are typically Annexin-high and Sytox-low, while pyroptotic cells are Annexin-high and Sytox-high (FIG. 7B). For simplicity, in experiments involving only a single death mode, a single relevant dye was often used. To focus on cells influenced by the circuits, the fraction of Annexin- or Sytox-positive cells was calculated after gating on the fluorescent co-transfection marker (FIG. 7C).
On the day before transfection, HEK cells were seeded at a density of 0.3-0.6 million cells per well on a 12-well plate, 0.1-0.3 million cells per well on a 24-well plate, or 15,000-50,000 cells per well on a 96-well plate. The cells were allowed to attach to the plate overnight, for at least 8 hours. On the day of transfection, we treated the cells with purified DNA plasmids encoding circuit components. In addition to plasmids encoding circuit components, we often included a plasmid encoding a fluorescent co-transfection marker, at roughly 50 ng DNA per well on a 24-well plate. Given the different number of molecular components in each synthetic circuit and their various relative ratios, the total amount of DNA ranged from 50 to 1 μg per well on a 24-well plate, and was scaled by […] when other 12-well or 96-well plates were used, respectively. On the same plate, we often equalized the total amount of DNA across all transfected wells, using a filler plasmid encoding the neomycin resistance gene. To transfect cells with plasmid DNA, we used three types of transfection reagents—Lipofectamine 2000 (Thermo Fisher), Lipofectamine 3000 (Thermo Fisher), and FuGENE HD (Promega), according to manufacturers' instructions. Briefly, for a typical transfection experiment on a 24-well plate, we mixed plasmids and the transfection reagent, around 200 ng of DNA per 1 μl of Lipofectamine 2000, in 25 μl of Opti-MEM reduced serum medium (Thermo Fisher), incubated the mixture for 5-10 min at room temperature, and then added another 25 μl of Opti-MEM before transferring the mixture dropwise to culture wells. We also performed some transfection experiments using the Lipofectamine 3000 kit (Thermo Fisher), at a ratio of 2,000 ng of DNA, 2 ul of 4 ul of P3000, and 3 μl of Lipofectamine 3000. We similarly diluted the mixture in Opti-MEM before adding it to cells. For transfection with FuGENE, we used a ratio of 4 μl FuGENE:1 μg of DNA, and incubated the DNA-FuGENE mixture at room temperature for 5 min before transfection. To enable protein expression from plasmids with a doxycycline-inducible promoter, doxycycline was added to the cell culture at a final concentration of 100 ng/mL. In experiments involving Q-VD-OPh, the compound was added to the cell culture at a final concentration of 30 μM, immediately after the cells received the transfection mixture. To transfect cells with in vitro transcribed mRNA, Lipofectamine MessengerMax (Thermo Fisher) was used. Briefly, for transfection of one well in a 96-well plate, 0.1 μL of Lipofectamine MessengerMAX was diluted in 1.25 μL Opti-MEM and incubated for 10 minutes at room temperature. mRNA was then added to Opti-MEM to the appropriate conditions at the following amounts: 12.5 ng of fluorescent co-transfection marker, 56.25 ng of protease, and 56.25 ng of engineered executioner. Diluted mRNA was then added to diluted MessengerMAX reagent and incubated for 5 minutes at room temperature before addition to Jurkat or THP-1 cells in RPMI media. […]

[1] = tested on: sender and receiver HEK cells
Protocol: For experiments that involved circuit senders and receivers, sender HEK cells were seeded on a 12-well plate at a density of 0.6 million cells per well (day 1). On the following day (day 2), using Lipofectamine 3000 (Thermo Fisher), we transfected the sender cells with 450 ng of pLVX-M-PURO plasmid containing the cargo, 450 ng of M-psPAX2, and 100 ng of pCMV-VSV-G. To generate VLPs encoding two cargoes, we performed similar transfections using two cargo-containing plasmids, each at 225 ng. At 8 hours post transfection, we removed the media containing residual Lipofectamine particles, washed the cells gently with fresh media, and replaced the media. One day after transfection of sender cells (day 3), we typically seeded receiver HEK cells on a 24-well plate at a density of around 0.3 million cells per well or on a 96-well plate at around 75,000 cells per well. We also tried other receiver densities, in which case we needed to dilute the cells if they approached confluency during the course of the experiment. Two days after transfection of sender cells (day 4), we collected the sender supernatant, centrifuged it at 3,000 g for 5 min to remove cell debris, and passed it through a cellulose acetate filter with 0.45 μm pore size (VWR). […] After about 40 hours, we collected the co-cultured cells, stained them with Sytox, and analyzed cell death by flow cytometry. […]

HEK293FT cells [2] = experiment: Co-transfection time course, cell death every 24 h over 4 days; type: cell-based, human; conditions: P3/P4-zipper reconstituted TEVP
Protocol: Moreover, it was evaluated if some of these mutations affect the maximal caspase activation accessible and the time dependency between caspase activation and cell death by co-transfecting (i) input proteases (P3/P4-zipper reconstituted TEVP as a positive control, split TEVP without reconstitution domain as a negative control, or NeoR to evaluate caspase baseline activity; all with IRES-BFP to enable expression tracking) and (ii) output caspase (“ENLYFQS” (SEQ ID NO: 2)/“ENLYFQQ” (SEQ ID NO: 4)/“ENLFFQQ” (SEQ ID NO: 7)+co-transfected GFP for expression tracking) in HEK293FT cells and measuring cell death every 24 h over the course of 4 days.

HEK293FT cells [3] = experiment: Polytransfection of input proteases and caspase cleavage-site variants, Annexin staining; type: cell-based, human
From the text: The cleavage efficiency of proteases is known to depend on corresponding accessible cleavage sites. Mutations to native protease cleavage sites can slow (i) the recruitment of substrates to the protease active site, (ii) catalytic reaction steps, or (iii) the release of the substrate from the protease. As described herein, this property to modulate cell death executioner activation thresholds. Specifically, we surveyed the following constructs with modified protease cleavage sites across a wide range of possible cell death executioner and input protease expression regimes: […]
To evaluate how the mutated protease cleavage sites affect Caspase 3 activation, we polytransfected (i) input proteases (P3/P4-zipper reconstituted TEVP as a positive control, split TEVP without reconstitution domain as a negative control, or NeoR to evaluate caspase baseline activity; all with IRES-BFP to enable expression tracking) and (ii) output caspase (caspase+co-transfected GFP for expression tracking) in HEK293FT cells. Annexin staining as described above in Example 1 was used to quantify cell death.

B1: TEVP-activatable GSDMA: GSDMA with TEVP cleavage site between N-terminal and C-terminal domains; SEQ ID NO: 16 (protein)
chain: MGSPVFEDVTRALVRELNPRGDLTPLDSLIDFKHFRPFCLVLRKRKSTLFWGARYVRTDYTLLDLLEPGSSPSDLTDSGNFSFKNMLDVQVQGLVEVPKTVKVKGTAGLSQSSTLEVQTLSVAPSALENLKKERKLSADHSFLNEMRYHEKNLYVVMEAVEAKQEVTVEQTGNANAIFSLPSLALLGLQGSLNNNKAVTIPKGCVLAYRVRLLRVFLFNLWDIPYICNDSMQTFPKIRRVPCSAFISPTQMISEEPEEEKLIGEENLYFQSMHEDFKTLKEEVQRETQEVEKLSPVGRSSLLTSLSHLLGKKKELQDLEQKLEGALDKGQKVTLEALPKDVLLSKDAMDAILYFLGALTELTEEQLKILVKSLEKKILPVQLKLVESTLEQNFLQDKEGVFPLQPDLLSSLGEEELTLTEALVGLSGLEVQRSGPQYAWDPDTRHNLCALYAGLSLLHLLSRKSNALTYCALS
mode of cell death, Sytox and Annexin double staining (HEK cells; background of TEVP activating TEVP-activatable caspase-3): converted apoptosis to pyroptosis
cell death without the activating TEVP (HEK cells): induced noticeable cell death even without the activating TEVP
sender cell death [1]: neither circuit component alone triggered substantial sender cell death

B2: TEVP-activatable caspase-3: caspase-3 whose cleavage site between large and small subunits was replaced by a TEVP cleavage site; SEQ ID NO: 10 (protein)
chain: MGSENTENSVDSKSIKNLEPKIIHGSESMDSGISLDNSYKMDYPEMGLCIIINNKNFHKSTGMTSRSGTDVDAANLRETFRNLKYEVRNKNDLTREEIVELMRDVSKEDHSKRSSFVCVLLSHGEEGIIFGTNGPVDLKKITNFFRGDRCRSLTGKPKLFIIQACRGTELDCGIETENLYFQSGVDDDMACHKIPVEADFLYAYSTAPGYYSWRNSKDGSWFIQSLCAMLKQYADKLEFMHILTRVNRKVATEFESFSFDATFHAKKQIPCIVSMLTKELYFYH
maximal caspase activation / maximal fraction of dead cells (HEK293FT cells [2]): comparable maximal fraction of dead cells
activation at high caspase expression with non-reconstituted split protease (HEK293FT cells [3]): leaky activation
input/output expression required for caspase activation (activation threshold) (HEK293FT cells [3]; order, decreasing: ENLFFQQ, ENLFFQY, ENLYFQS+TEVP-cleavable DHFR, ENLFFQS~ENLYFQY~ENLYFQQ, ENLYFQS, both TEVP and TVMVP cleavage site): in decreasing order
Sytox uptake (HEK cells; co-transfected with TEVP): only modestly took up Sytox
cell death without the activating TEVP (HEK cells): induced noticeable cell death even without the activating TEVP
cell death / apoptosis, Annexin staining (HEK cells; with TEVP, flow cytometry 16 to 24 hours after DNA transfection): ability of the modified caspase-3 to kill HEK cells when co-transfected with TEVP was verified

B3: tobacco etch virus protease (protein)
chain: MGSGESLFKGPRDYNPISSTICHLTNESDGHTTSLYGIGFGPFIITNKHLFRRNNGTLLVQSLHGVFKVKNTTTLQQHLIDGRDMIIIRMPKDFPPFPQKLKFREPQREERICLVTTNFQTKSMSSMVSDTSCTFPSSDGIFWKHWIQTKDGQCGSPLVSTRDGFIVGIHSASNFTNTNNYFTSVPKNFMELLTNQEAQQWVSGWRLNADSVLWGGHKVFMVKPEEPFQPVKEATQLMNS
notes: viral input protease
activation of cognate engineered GSDMs containing the cleavage sites (HEK cells; tev, tvmv and hcv sites): orthogonally activated their cognate engineered GSDMs
sender cell death [1]: neither circuit component alone triggered substantial sender cell death
